Measured values: patent US11833164B2, “Methods of treating Fabry disease in patients having a mutation in the GLA gene” (Amicus Therapeutics, Inc., priority 2019, dated 2023)

Tested on: mutant form of α-Gal A expressed in HEK-293 cells
Assay: HEK assay (GLP HEK / Migalastat Amenability Assay): α-Gal A activity in lysates of transiently transfected HEK-293 cells incubated with or without 10 μM migalastat
Assay type: cell-based, human
Conditions: for Absolute increase (% WT) / Relative increase: 10 μM migalastat versus baseline; for Baseline α-Gal A activity (% WT): absence of migalastat; for Baseline α-Gal A activity (% WT) / 10 μM migalastat α-Gal A activity (% WT): percentage of baseline wild-type α-Gal A activity; for Baseline α-Gal A activity (% WT) / Baseline α-Gal A activity / 10 μM migalastat α-Gal A activity / 10 μM migalastat α-Gal A activity (% WT): mean ± SEM; for Baseline α-Gal A activity / 10 μM migalastat α-Gal A activity: lysates of HEK-293 cells transiently transfected with the mutant form; for Baseline α-Gal A activity: incubated 5 days in absence of migalastat; for 10 μM migalastat α-Gal A activity: incubated 5 days with 10 μM migalastat; for 10 μM migalastat α-Gal A activity (% WT): with 10 μM migalastat, 5 days
How it was run: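 HEK-293 cells transiently transfected with mutant α-Gal A and incubated with or without 10 μM migalastat; lysate activity given as nmol free 4-MU released per mg protein per hour. Values are mean±SEM.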

Molecule | Absolute increase (% WT) | Relative increase | Baseline α-Gal A activity (% WT) | Baseline α-Gal A activity [nmol/mg/h] | 10 μM migalastat α-Gal A activity [nmol/mg/h] | 10 μM migalastat α-Gal A activity (% WT)
Q312K (protein) MQLRNPELHLGCALALRFLALVSWDIPGARALDNGLARTPTMGWLHWERFMCNLDCQEEPDSCISEKLFMEMAELMVSEGWKDAGYEYLCIDDCWMAPQRDSEGRLQADPQRFPHGIRQLANYVHSKGLKLGIYADVGNKTCAGFPGSFGYYDIDAQTFADWGVDLLKFDGCYCDSLENLADGYKHMSLALNRTGRSIVYSCEWPLYMWPFQKPNYTEIRQYCNHWRNFADIDDSWKSIKSILDWTSFNQERIVDVAGPGGWNDPDMLVIGNFGLSWNQQVTQMALWAIMAAPLFMSNDLRHISPQAKALLKDKDVIAINQDPLGKQGYQLRQGDNFEVWERPLSGLAWAVAMINRQEIGGPRSYTIAVASLGKGVACNPACFITQLLPVKRKLGFYEWTSRLRSHINPTGTVLLQLENTMQMSLKDLL | 15.5 | 1.8 | 19.7 ± 1.4 | 6733 ± 510 | 11934 ± 624 | 35.2 ± 1.8
K314M (protein) MQLRNPELHLGCALALRFLALVSWDIPGARALDNGLARTPTMGWLHWERFMCNLDCQEEPDSCISEKLFMEMAELMVSEGWKDAGYEYLCIDDCWMAPQRDSEGRLQADPQRFPHGIRQLANYVHSKGLKLGIYADVGNKTCAGFPGSFGYYDIDAQTFADWGVDLLKFDGCYCDSLENLADGYKHMSLALNRTGRSIVYSCEWPLYMWPFQKPNYTEIRQYCNHWRNFADIDDSWKSIKSILDWTSFNQERIVDVAGPGGWNDPDMLVIGNFGLSWNQQVTQMALWAIMAAPLFMSNDLRHISPQAKALLQDMDVIAINQDPLGKQGYQLRQGDNFEVWERPLSGLAWAVAMINRQEIGGPRSYTIAVASLGKGVACNPACFITQLLPVKRKLGFYEWTSRLRSHINPTGTVLLQLENTMQMSLKDLL | 15.9 | 1.3 | 50.9 ± 3.8 | 18231 ± 2878 | 23043 ± 2838 | 66.8 ± 3.8
D315A (protein) MQLRNPELHLGCALALRFLALVSWDIPGARALDNGLARTPTMGWLHWERFMCNLDCQEEPDSCISEKLFMEMAELMVSEGWKDAGYEYLCIDDCWMAPQRDSEGRLQADPQRFPHGIRQLANYVHSKGLKLGIYADVGNKTCAGFPGSFGYYDIDAQTFADWGVDLLKFDGCYCDSLENLADGYKHMSLALNRTGRSIVYSCEWPLYMWPFQKPNYTEIRQYCNHWRNFADIDDSWKSIKSILDWTSFNQERIVDVAGPGGWNDPDMLVIGNFGLSWNQQVTQMALWAIMAAPLFMSNDLRHISPQAKALLQDKAVIAINQDPLGKQGYQLRQGDNFEVWERPLSGLAWAVAMINRQEIGGPRSYTIAVASLGKGVACNPACFITQLLPVKRKLGFYEWTSRLRSHINPTGTVLLQLENTMQMSLKDLL | 25.1 | 1.3 | 68.3 ± 4.8 | 18519 ± 1370 | 24758 ± 1512 | 93.4 ± 7
K314N (protein) MQLRNPELHLGCALALRFLALVSWDIPGARALDNGLARTPTMGWLHWERFMCNLDCQEEPDSCISEKLFMEMAELMVSEGWKDAGYEYLCIDDCWMAPQRDSEGRLQADPQRFPHGIRQLANYVHSKGLKLGIYADVGNKTCAGFPGSFGYYDIDAQTFADWGVDLLKFDGCYCDSLENLADGYKHMSLALNRTGRSIVYSCEWPLYMWPFQKPNYTEIRQYCNHWRNFADIDDSWKSIKSILDWTSFNQERIVDVAGPGGWNDPDMLVIGNFGLSWNQQVTQMALWAIMAAPLFMSNDLRHISPQAKALLQDNDVIAINQDPLGKQGYQLRQGDNFEVWERPLSGLAWAVAMINRQEIGGPRSYTIAVASLGKGVACNPACFITQLLPVKRKLGFYEWTSRLRSHINPTGTVLLQLENTMQMSLKDLL | 10.8 | 1.2 | 39.1 ± 3.4 | 14205 ± 2418 | 17364 ± 2225 | 49.9 ± 2.6
Q312L (protein) MQLRNPELHLGCALALRFLALVSWDIPGARALDNGLARTPTMGWLHWERFMCNLDCQEEPDSCISEKLFMEMAELMVSEGWKDAGYEYLCIDDCWMAPQRDSEGRLQADPQRFPHGIRQLANYVHSKGLKLGIYADVGNKTCAGFPGSFGYYDIDAQTFADWGVDLLKFDGCYCDSLENLADGYKHMSLALNRTGRSIVYSCEWPLYMWPFQKPNYTEIRQYCNHWRNFADIDDSWKSIKSILDWTSFNQERIVDVAGPGGWNDPDMLVIGNFGLSWNQQVTQMALWAIMAAPLFMSNDLRHISPQAKALLLDKDVIAINQDPLGKQGYQLRQGDNFEVWERPLSGLAWAVAMINRQEIGGPRSYTIAVASLGKGVACNPACFITQLLPVKRKLGFYEWTSRLRSHINPTGTVLLQLENTMQMSLKDLL | 21.3 | 1.4 | 50.1 ± 4.1 | 16986 ± 1428 | 23967 ± 1400 | 71.5 ± 4.6
K314E (protein) MQLRNPELHLGCALALRFLALVSWDIPGARALDNGLARTPTMGWLHWERFMCNLDCQEEPDSCISEKLFMEMAELMVSEGWKDAGYEYLCIDDCWMAPQRDSEGRLQADPQRFPHGIRQLANYVHSKGLKLGIYADVGNKTCAGFPGSFGYYDIDAQTFADWGVDLLKFDGCYCDSLENLADGYKHMSLALNRTGRSIVYSCEWPLYMWPFQKPNYTEIRQYCNHWRNFADIDDSWKSIKSILDWTSFNQERIVDVAGPGGWNDPDMLVIGNFGLSWNQQVTQMALWAIMAAPLFMSNDLRHISPQAKALLQDEDVIAINQDPLGKQGYQLRQGDNFEVWERPLSGLAWAVAMINRQEIGGPRSYTIAVASLGKGVACNPACFITQLLPVKRKLGFYEWTSRLRSHINPTGTVLLQLENTMQMSLKDLL | 11.0 | 1.3 | 37.7 ± 2.5 | 13026 ± 1767 | 16765 ± 2098 | 48.7 ± 2.8
D313E (protein) MQLRNPELHLGCALALRFLALVSWDIPGARALDNGLARTPTMGWLHWERFMCNLDCQEEPDSCISEKLFMEMAELMVSEGWKDAGYEYLCIDDCWMAPQRDSEGRLQADPQRFPHGIRQLANYVHSKGLKLGIYADVGNKTCAGFPGSFGYYDIDAQTFADWGVDLLKFDGCYCDSLENLADGYKHMSLALNRTGRSIVYSCEWPLYMWPFQKPNYTEIRQYCNHWRNFADIDDSWKSIKSILDWTSFNQERIVDVAGPGGWNDPDMLVIGNFGLSWNQQVTQMALWAIMAAPLFMSNDLRHISPQAKALLQEKDVIAINQDPLGKQGYQLRQGDNFEVWERPLSGLAWAVAMINRQEIGGPRSYTIAVASLGKGVACNPACFITQLLPVKRKLGFYEWTSRLRSHINPTGTVLLQLENTMQMSLKDLL | 13.2 | 1.3 | 42.5 ± 2.3 | 14321 ± 1579 | 18273 ± 1330 | 55.7 ± 1.9
K314T (protein) MQLRNPELHLGCALALRFLALVSWDIPGARALDNGLARTPTMGWLHWERFMCNLDCQEEPDSCISEKLFMEMAELMVSEGWKDAGYEYLCIDDCWMAPQRDSEGRLQADPQRFPHGIRQLANYVHSKGLKLGIYADVGNKTCAGFPGSFGYYDIDAQTFADWGVDLLKFDGCYCDSLENLADGYKHMSLALNRTGRSIVYSCEWPLYMWPFQKPNYTEIRQYCNHWRNFADIDDSWKSIKSILDWTSFNQERIVDVAGPGGWNDPDMLVIGNFGLSWNQQVTQMALWAIMAAPLFMSNDLRHISPQAKALLQDTDVIAINQDPLGKQGYQLRQGDNFEVWERPLSGLAWAVAMINRQEIGGPRSYTIAVASLGKGVACNPACFITQLLPVKRKLGFYEWTSRLRSHINPTGTVLLQLENTMQMSLKDLL | 17.9 | 1.2 | 75.9 ± 4.4 | 25162 ± 2701 | 30501 ± 2332 | 93.8 ± 4.5
D313V (protein) MQLRNPELHLGCALALRFLALVSWDIPGARALDNGLARTPTMGWLHWERFMCNLDCQEEPDSCISEKLFMEMAELMVSEGWKDAGYEYLCIDDCWMAPQRDSEGRLQADPQRFPHGIRQLANYVHSKGLKLGIYADVGNKTCAGFPGSFGYYDIDAQTFADWGVDLLKFDGCYCDSLENLADGYKHMSLALNRTGRSIVYSCEWPLYMWPFQKPNYTEIRQYCNHWRNFADIDDSWKSIKSILDWTSFNQERIVDVAGPGGWNDPDMLVIGNFGLSWNQQVTQMALWAIMAAPLFMSNDLRHISPQAKALLQVKDVIAINQDPLGKQGYQLRQGDNFEVWERPLSGLAWAVAMINRQEIGGPRSYTIAVASLGKGVACNPACFITQLLPVKRKLGFYEWTSRLRSHINPTGTVLLQLENTMQMSLKDLL | 6.7 | 3.9 | 2.9 ± 0.2 | 894 ± 33 | 3480 ± 580 | 9.6 ± 0.9
